Data from the supplement of paper PMC9112550, “Optimization of the antimicrobial peptide Bac7 by deep mutational scanning” (BMC Biology, 2022).

Test system: Escherichia coli TOP10
Assay: shrunken log2 fold change of peptide-encoding DNA abundance (4.5 h post-induction vs induction); higher = less antimicrobial activity (less host growth inhibition)
Details: time post-induction: 4.5 h; library: site-saturation at positions 5, 18, 19, 20
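Also: peptides expressed intracellularly from a pBAD plasmid library in pooled LB shake-flask culture, induced with 0.3% L-arabinose, DNA abundance read by NGS, three biological replicates, DESeq2 with apeglm shrinkage.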

| Sequence | shrunken log2 fold change |
| --- | --- |
| RRIRSRPPRLPRPRPRPQFTPRP | -0.714 |
| RRIRGRPPRLPRPRPRPTPHPRP | 0.906 |
| RRIRHRPPRLPRPRPRPDIVPRP | -0.38 |
| RRIRKRPPRLPRPRPRPAEAPRP | 0.959 |
| RRIRVRPPRLPRPRPRPEIHPRP | -0.0841 |
| RRIRQRPPRLPRPRPRPSYRPRP | -0.0524 |
| RRIRLRPPRLPRPRPRPWMFPRP | -0.108 |
| RRIRTRPPRLPRPRPRPPFMPRP | -0.194 |
| RRIRSRPPRLPRPRPRPHCVPRP | -0.0724 |
| RRIRERPPRLPRPRPRPIWHPRP | -0.0406 |
| RRIRDRPPRLPRPRPRPQILPRP | 0.132 |
| RRIRFRPPRLPRPRPRPDRKPRP | 0.00132 |
| RRIRLRPPRLPRPRPRPFISPRP | -0.182 |
| RRIRRRPPRLPRPRPRPQKRPRP | 0.13 |
| RRIRPRPPRLPRPRPRPHYWPRP | -0.41 |
| RRIRARPPRLPRPRPRPNMDPRP | -0.00909 |
| RRIRYRPPRLPRPRPRPVCSPRP | -0.484 |
| RRIRWRPPRLPRPRPRPICAPRP | 0.291 |
| RRIRPRPPRLPRPRPRPRLRPRP | 0.458 |
| RRIRYRPPRLPRPRPRPGENPRP | 0.00408 |
| RRIRYRPPRLPRPRPRPGMHPRP | -0.339 |
| RRIRSRPPRLPRPRPRPLASPRP | 0.0667 |
| RRIRFRPPRLPRPRPRPDTEPRP | -0.776 |
| RRIRWRPPRLPRPRPRPLVAPRP | 0.815 |
| RRIRHRPPRLPRPRPRPNKHPRP | -0.627 |

| Sequence | shrunken log2 fold change |
| --- | --- |
| RRIRPRPPRLPRPRPRPTACPRP | 0.338 |
| RRIRYRPPRLPRPRPRPTCDPRP | -0.424 |
| RRIRIRPPRLPRPRPRPRWQPRP | 0.128 |
| RRIRVRPPRLPRPRPRPFHDPRP | -0.0143 |
| RRIRERPPRLPRPRPRPIVIPRP | -0.233 |
| RRIRDRPPRLPRPRPRPFSNPRP | -0.0771 |
| RRIRFRPPRLPRPRPRPLFTPRP | -0.239 |
| RRIRNRPPRLPRPRPRPKMPPRP | 0.341 |
| RRIRCRPPRLPRPRPRPAKGPRP | -0.179 |
| RRIRIRPPRLPRPRPRPGQVPRP | -0.0393 |
| RRIRCRPPRLPRPRPRPHCNPRP | -0.395 |
| RRIRARPPRLPRPRPRPQRSPRP | 0.17 |
| RRIRDRPPRLPRPRPRPKSDPRP | 0.295 |
| RRIRRRPPRLPRPRPRPGSQPRP | -0.0144 |
| RRIRMRPPRLPRPRPRPPANPRP | 1.17 |
| RRIRSRPPRLPRPRPRPHGLPRP | -0.0195 |
| RRIRNRPPRLPRPRPRPSNYPRP | -0.791 |
| RRIRPRPPRLPRPRPRPLTKPRP | 0.0122 |
| RRIRARPPRLPRPRPRPQLKPRP | 0.237 |
| RRIRERPPRLPRPRPRPMQQPRP | -0.0321 |
| RRIRPRPPRLPRPRPRPEENPRP | 0.163 |
| RRIRGRPPRLPRPRPRPEYGPRP | -0.0112 |
| RRIRIRPPRLPRPRPRPDGDPRP | -0.176 |
| RRIRLRPPRLPRPRPRPHFFPRP | -0.128 |
| RRIRARPPRLPRPRPRPHYHPRP | -0.332 |

| Sequence | shrunken log2 fold change |
| --- | --- |
| RRIRMRPPRLPRPRPRPYLFPRP | -0.0192 |
| RRIRLRPPRLPRPRPRPAIKPRP | -0.139 |
| RRIRPRPPRLPRPRPRPFKEPRP | -0.54 |
| RRIRFRPPRLPRPRPRPGTPPRP | 0.292 |
| RRIRQRPPRLPRPRPRPWQCPRP | -0.1 |
| RRIRWRPPRLPRPRPRPETIPRP | 0.322 |
| RRIRQRPPRLPRPRPRPAHHPRP | 0.138 |
| RRIRRRPPRLPRPRPRPGSTPRP | 0.1 |
| RRIRLRPPRLPRPRPRPWCCPRP | -0.234 |
| RRIRSRPPRLPRPRPRPSHQPRP | -0.284 |
| RRIRGRPPRLPRPRPRPEPQPRP | 1.41 |
| RRIRARPPRLPRPRPRPDYDPRP | 0.0454 |
| RRIRSRPPRLPRPRPRPHEQPRP | 0.128 |
| RRIRCRPPRLPRPRPRPENKPRP | -0.415 |
| RRIRFRPPRLPRPRPRPAGYPRP | 0.00702 |
| RRIRARPPRLPRPRPRPAKAPRP | 0.332 |
| RRIRARPPRLPRPRPRPAGGPRP | 0.678 |
| RRIRHRPPRLPRPRPRPQHIPRP | -0.595 |
| RRIRWRPPRLPRPRPRPKNPPRP | 0.152 |
| RRIRQRPPRLPRPRPRPHKHPRP | -0.502 |
| RRIRVRPPRLPRPRPRPFVWPRP | -0.03 |
| RRIRLRPPRLPRPRPRPAERPRP | 0.139 |
| RRIRLRPPRLPRPRPRPIMIPRP | -0.286 |
| RRIRYRPPRLPRPRPRPMMCPRP | 0.168 |
| RRIRHRPPRLPRPRPRPWPIPRP | -0.00691 |

| Sequence | shrunken log2 fold change |
| --- | --- |
| RRIRARPPRLPRPRPRPAKPPRP | 0.127 |
| RRIRNRPPRLPRPRPRPIITPRP | -0.14 |
| RRIRERPPRLPRPRPRPHDFPRP | -0.0616 |
| RRIRPRPPRLPRPRPRPIPKPRP | 0.28 |
| RRIRCRPPRLPRPRPRPKPFPRP | -0.0386 |
| RRIRFRPPRLPRPRPRPNCQPRP | -0.508 |
| RRIRKRPPRLPRPRPRPNVQPRP | 0.179 |
| RRIRPRPPRLPRPRPRPKKWPRP | -0.0589 |
| RRIRWRPPRLPRPRPRPRNGPRP | 0.401 |
| RRIRMRPPRLPRPRPRPWSKPRP | 0.0409 |
| RRIRGRPPRLPRPRPRPDSWPRP | 0.627 |
| RRIRNRPPRLPRPRPRPWYTPRP | 0.0349 |
| RRIRARPPRLPRPRPRPYEVPRP | -0.0785 |
| RRIRERPPRLPRPRPRPLCWPRP | -0.0772 |
| RRIRMRPPRLPRPRPRPWKLPRP | -0.133 |
| RRIRCRPPRLPRPRPRPCKVPRP | -0.147 |
| RRIRWRPPRLPRPRPRPYYTPRP | -0.899 |
| RRIRMRPPRLPRPRPRPDHAPRP | 0.0825 |
| RRIRSRPPRLPRPRPRPNEAPRP | 0.162 |
| RRIRMRPPRLPRPRPRPTDRPRP | 0.894 |
| RRIRFRPPRLPRPRPRPWLRPRP | -0.0551 |
| RRIRGRPPRLPRPRPRPKTFPRP | 0.292 |
| RRIRCRPPRLPRPRPRPAKIPRP | -0.361 |
| RRIRARPPRLPRPRPRPENPPRP | 1.14 |
| RRIRTRPPRLPRPRPRPKDDPRP | -0.124 |

| Sequence | shrunken log2 fold change |
| --- | --- |
| RRIRPRPPRLPRPRPRPIRCPRP | 0.125 |
| RRIRYRPPRLPRPRPRPKHQPRP | -0.441 |
| RRIRPRPPRLPRPRPRPRRKPRP | 0.166 |
| RRIRARPPRLPRPRPRPFMCPRP | 0.618 |
| RRIRVRPPRLPRPRPRPLTRPRP | 0.196 |
| RRIRQRPPRLPRPRPRPTFFPRP | -0.0813 |
| RRIRQRPPRLPRPRPRPINDPRP | -0.293 |
| RRIRNRPPRLPRPRPRPINGPRP | -0.262 |
| RRIRYRPPRLPRPRPRPSAVPRP | -0.175 |
| RRIRCRPPRLPRPRPRPLFPPRP | -0.2 |
| RRIRCRPPRLPRPRPRPLMVPRP | -0.519 |
| RRIRTRPPRLPRPRPRPIRKPRP | 0.0309 |
| RRIRIRPPRLPRPRPRPKVKPRP | -0.127 |
| RRIRFRPPRLPRPRPRPVSTPRP | -0.476 |
| RRIRSRPPRLPRPRPRPGEFPRP | -0.181 |
| RRIRLRPPRLPRPRPRPGELPRP | 0.0243 |
| RRIRNRPPRLPRPRPRPEWPPRP | 0.178 |
| RRIRFRPPRLPRPRPRPGNWPRP | 0.724 |
| RRIRHRPPRLPRPRPRPRKPPRP | 0.321 |
| RRIRMRPPRLPRPRPRPSKPPRP | 0.0519 |
| RRIRNRPPRLPRPRPRPAFNPRP | 0.179 |
| RRIRIRPPRLPRPRPRPVQDPRP | -1.09 |
| RRIRFRPPRLPRPRPRPMGHPRP | -0.184 |
| RRIRLRPPRLPRPRPRPEGTPRP | 0.241 |
| RRIRGRPPRLPRPRPRPMYCPRP | 0.0756 |
